Test results reported in IntAct's records for PubMed 25042851.

B1: Ubiquitin-binding protein CUE5 (Saccharomyces cerevisiae), Q08412 (parent)
chain: MEEKEGIKDSSLLEKSNVPESINEDISKTTDVDLNSDGKKDNDTSAKDGTPKVEEKVNKSSGIDEDEVVTPAEDAKEEEEEHPPLPARRKSEEEPSKENPILQELKDAFPNLEEKYIKAVIIASQGVLSPAFNALLFLSDPESGKDIELPTQPVRKNPEAPARRRQTQLEQDELLARQLDEQFNSSHSRRRNRDRATRSMHEQRRRRHNPNEREQHHEDSEEEDSWSQFVEKDLPELTDRAGRSLQDTANKVSNWISDAYRRNFASGNEQNDNQHGHQDQQEWEPEIVDLSQGGKNSRPQQPERRRFNSFGVQVGDDSLESHGITLHNEDGFEDDEDVPPQLPTRTKSGESTGKVVAETTYIDTPDTETKKKWQPLPPEPLDTTPTKVNAVSRNKKNPDEDEFLINSDDEM
partner: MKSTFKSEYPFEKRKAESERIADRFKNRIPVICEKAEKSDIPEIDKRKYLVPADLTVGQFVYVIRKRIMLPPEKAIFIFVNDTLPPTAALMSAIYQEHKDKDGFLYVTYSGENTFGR
B2: Ubiquitin-binding protein CUE5 (Saccharomyces cerevisiae), Q08412 (parent)
chain: B1 chain

Variants of: B1
Settings: with atg8_yeast ATG8, P38182

effect of a mutation on the interaction | Variant
decreasing interaction strength | MEEKEGIKDSSLLEKSNVPESINEDISKTTDVDLNSDGKKDNDTSAKDGTPKVEEKVNKSSGIDEDEVVTPAEDAKEEEEEHPPLPARRKSEEEPSKENPILQELKDAFPNLEEKYIKAVIIASQGVLSPAFNALLFLSDPESGKDIELPTQPVRKNPEAPARRRQTQLEQDELLARQLDEQFNSSHSRRRNRDRATRSMHEQRRRRHNPNEREQHHEDSEEEDSWSQFVEKDLPELTDRAGRSLQDTANKVSNWISDAYRRNFASGNEQNDNQHGHQDQQEWEPEIVDLSQGGKNSRPQQPERRRFNSFGVQVGDDSLESHGITLHNEDGFEDDEDVPPQLPTRTKSGESTGKVVAETTYIDTPDTETKKKWQPAPPEPLDTTPTKVNAVSRNKKNPDEDEFLINSDDEM [L376A]
disrupting interaction strength | MEEKEGIKDSSLLEKSNVPESINEDISKTTDVDLNSDGKKDNDTSAKDGTPKVEEKVNKSSGIDEDEVVTPAEDAKEEEEEHPPLPARRKSEEEPSKENPILQELKDAFPNLEEKYIKAVIIASQGVLSPAFNALLFLSDPESGKDIELPTQPVRKNPEAPARRRQTQLEQDELLARQLDEQFNSSHSRRRNRDRATRSMHEQRRRRHNPNEREQHHEDSEEEDSWSQFVEKDLPELTDRAGRSLQDTANKVSNWISDAYRRNFASGNEQNDNQHGHQDQQEWEPEIVDLSQGGKNSRPQQPERRRFNSFGVQVGDDSLESHGITLHNEDGFEDDEDVPPQLPTRTKSGESTGKVVAETTYIDTPDTETKKKAAAAPPEPLDTTPTKVNAVSRNKKNPDEDEFLINSDDEM [W373A;Q374A;P375A;L376A]
decreasing interaction strength | MEEKEGIKDSSLLEKSNVPESINEDISKTTDVDLNSDGKKDNDTSAKDGTPKVEEKVNKSSGIDEDEVVTPAEDAKEEEEEHPPLPARRKSEEEPSKENPILQELKDAFPNLEEKYIKAVIIASQGVLSPAFNALLFLSDPESGKDIELPTQPVRKNPEAPARRRQTQLEQDELLARQLDEQFNSSHSRRRNRDRATRSMHEQRRRRHNPNEREQHHEDSEEEDSWSQFVEKDLPELTDRAGRSLQDTANKVSNWISDAYRRNFASGNEQNDNQHGHQDQQEWEPEIVDLSQGGKNSRPQQPERRRFNSFGVQVGDDSLESHGITLHNEDGFEDDEDVPPQLPTRTKSGESTGKVVAETTYIDTPDTETKKKAQPLPPEPLDTTPTKVNAVSRNKKNPDEDEFLINSDDEM [W373A]

Variants of: B2
Settings: with hd_human HTT

effect of a mutation on the interaction | Variant
disrupting interaction strength | MEEKEGIKDSSLLEKSNVPESINEDISKTTDVDLNSDGKKDNDTSAKDGTPKVEEKVNKSSGIDEDEVVTPAEDAKEEEEEHPPLPARRKSEEEPSKENPILQELKDAFPNLEEKYIKAVIIASQGVLSPAFNAAAFLSDPESGKDIELPTQPVRKNPEAPARRRQTQLEQDELLARQLDEQFNSSHSRRRNRDRATRSMHEQRRRRHNPNEREQHHEDSEEEDSWSQFVEKDLPELTDRAGRSLQDTANKVSNWISDAYRRNFASGNEQNDNQHGHQDQQEWEPEIVDLSQGGKNSRPQQPERRRFNSFGVQVGDDSLESHGITLHNEDGFEDDEDVPPQLPTRTKSGESTGKVVAETTYIDTPDTETKKKWQPLPPEPLDTTPTKVNAVSRNKKNPDEDEFLINSDDEM [L135A;L136A]
